Assay in all cases: anisotropy competition; 25 mM NaPi, 225 mM NaCl, 10% v/v glycerol, 5 mM DTT, 0.2 mg/mL BSA, 22°C; 20 nM labelled DNA; pH not stated for the binding assay
Common to all, as to details: protein: recombinant; tags: N-terminal 6xHis-lipoyl-TEV tag, cleaved; chain copies: 4

One data set addresses Mmp53 (Mus musculus, UniProt P02340 1-390).
A further data set deals with T1, ΔNp63α (Homo sapiens, UniProt Q9H3D4-2 1-586).
T1 sequence: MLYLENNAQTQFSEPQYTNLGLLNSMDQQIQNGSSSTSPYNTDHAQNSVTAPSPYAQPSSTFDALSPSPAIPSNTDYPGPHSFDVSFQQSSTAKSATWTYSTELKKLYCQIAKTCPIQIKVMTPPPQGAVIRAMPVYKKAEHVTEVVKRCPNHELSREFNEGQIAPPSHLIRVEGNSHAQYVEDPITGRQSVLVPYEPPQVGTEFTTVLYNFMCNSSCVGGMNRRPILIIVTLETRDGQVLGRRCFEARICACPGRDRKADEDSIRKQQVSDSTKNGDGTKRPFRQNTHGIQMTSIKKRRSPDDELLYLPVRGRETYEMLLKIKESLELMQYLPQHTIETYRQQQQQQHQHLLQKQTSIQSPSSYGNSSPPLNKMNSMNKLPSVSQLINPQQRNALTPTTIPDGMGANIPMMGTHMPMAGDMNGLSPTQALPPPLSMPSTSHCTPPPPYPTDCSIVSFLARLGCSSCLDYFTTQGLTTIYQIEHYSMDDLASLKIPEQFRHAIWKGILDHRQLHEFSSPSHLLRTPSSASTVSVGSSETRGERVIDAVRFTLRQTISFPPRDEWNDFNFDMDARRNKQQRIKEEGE

A further data set addresses Hsp53 (Homo sapiens, UniProt P04637 1-393).
The target of the next data set is T2, Dmp53 (Drosophila melanogaster, UniProt Q9N6D8 1-385).
T2 sequence: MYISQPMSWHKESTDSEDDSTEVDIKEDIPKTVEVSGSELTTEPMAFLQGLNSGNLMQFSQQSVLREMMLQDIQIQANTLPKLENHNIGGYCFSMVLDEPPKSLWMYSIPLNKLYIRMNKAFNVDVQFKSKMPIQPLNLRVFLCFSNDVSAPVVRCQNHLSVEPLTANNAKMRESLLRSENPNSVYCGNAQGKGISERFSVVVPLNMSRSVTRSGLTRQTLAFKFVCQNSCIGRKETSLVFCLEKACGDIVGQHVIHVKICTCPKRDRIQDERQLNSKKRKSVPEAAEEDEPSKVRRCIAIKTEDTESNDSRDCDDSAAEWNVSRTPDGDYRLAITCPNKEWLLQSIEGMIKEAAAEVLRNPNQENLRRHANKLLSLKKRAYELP

The target of a further data set is T3, ΔNp73β (Homo sapiens, UniProt O15350-9 1-450).
T3 sequence: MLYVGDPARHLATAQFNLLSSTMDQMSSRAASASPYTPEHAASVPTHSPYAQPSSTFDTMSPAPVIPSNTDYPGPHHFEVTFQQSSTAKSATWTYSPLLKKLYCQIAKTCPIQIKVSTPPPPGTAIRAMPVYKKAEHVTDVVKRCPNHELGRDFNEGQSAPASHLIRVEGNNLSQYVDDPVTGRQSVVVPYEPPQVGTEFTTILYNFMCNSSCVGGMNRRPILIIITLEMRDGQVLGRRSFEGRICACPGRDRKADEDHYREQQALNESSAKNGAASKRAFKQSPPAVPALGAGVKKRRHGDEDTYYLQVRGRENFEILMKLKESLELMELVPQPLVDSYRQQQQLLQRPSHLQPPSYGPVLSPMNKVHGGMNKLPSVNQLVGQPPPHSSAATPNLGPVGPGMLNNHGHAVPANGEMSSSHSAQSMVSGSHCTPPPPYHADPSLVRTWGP

Another data set addresses T4, ΔNp63β (Homo sapiens, UniProt Q9H3D4-4 1-461).
T4 sequence: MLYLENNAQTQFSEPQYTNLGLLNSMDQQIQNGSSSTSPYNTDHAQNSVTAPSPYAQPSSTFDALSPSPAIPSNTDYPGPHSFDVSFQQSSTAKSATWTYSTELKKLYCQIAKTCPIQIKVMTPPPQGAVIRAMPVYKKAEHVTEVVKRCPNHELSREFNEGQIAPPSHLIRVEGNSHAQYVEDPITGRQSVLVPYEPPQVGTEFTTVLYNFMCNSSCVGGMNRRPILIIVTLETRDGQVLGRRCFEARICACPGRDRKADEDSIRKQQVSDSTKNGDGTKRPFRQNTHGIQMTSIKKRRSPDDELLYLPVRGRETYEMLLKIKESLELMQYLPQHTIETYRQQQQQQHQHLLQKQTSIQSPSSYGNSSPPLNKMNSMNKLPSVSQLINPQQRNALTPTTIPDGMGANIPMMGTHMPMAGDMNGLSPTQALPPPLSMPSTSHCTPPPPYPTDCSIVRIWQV

Sequence of Mmp53 (P02340 whole entry): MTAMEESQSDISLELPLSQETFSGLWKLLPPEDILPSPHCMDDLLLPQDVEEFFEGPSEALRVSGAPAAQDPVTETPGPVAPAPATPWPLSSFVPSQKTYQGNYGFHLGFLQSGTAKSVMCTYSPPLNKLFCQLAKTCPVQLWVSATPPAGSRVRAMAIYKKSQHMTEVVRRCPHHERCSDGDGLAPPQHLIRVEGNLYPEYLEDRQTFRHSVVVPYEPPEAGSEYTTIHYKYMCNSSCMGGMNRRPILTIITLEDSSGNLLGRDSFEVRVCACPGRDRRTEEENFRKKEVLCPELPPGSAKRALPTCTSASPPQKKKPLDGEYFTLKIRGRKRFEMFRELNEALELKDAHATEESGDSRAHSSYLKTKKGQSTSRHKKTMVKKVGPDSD
Sequence of Hsp53 (P04637 whole entry): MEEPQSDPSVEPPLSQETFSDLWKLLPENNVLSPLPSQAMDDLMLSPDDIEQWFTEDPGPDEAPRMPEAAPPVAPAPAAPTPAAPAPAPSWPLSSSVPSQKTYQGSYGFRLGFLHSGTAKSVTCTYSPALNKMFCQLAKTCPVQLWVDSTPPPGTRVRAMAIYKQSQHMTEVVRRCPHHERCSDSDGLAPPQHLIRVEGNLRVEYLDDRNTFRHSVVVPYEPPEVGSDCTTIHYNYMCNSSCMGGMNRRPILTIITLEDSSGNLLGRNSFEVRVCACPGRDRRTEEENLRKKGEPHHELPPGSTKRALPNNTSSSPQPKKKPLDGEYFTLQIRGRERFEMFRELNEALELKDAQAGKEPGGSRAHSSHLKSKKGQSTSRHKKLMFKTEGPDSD

B1: Ref competitor (dsDNA)
DNA 1: CGCGGACATGTCCGGACATGTCCCGC
DNA 2: GCGGGACATGTCCGGACATGTCCGCG
For B1, the Kd with Mmp53 is -6.88 log10(M); with ΔNp63α it was -7.21 log10(M); with Hsp53, -7.12 log10(M); in the data set with Dmp53 it was -7.56 log10(M); with ΔNp73β, -7.62 log10(M); with ΔNp63β it was -7.45 log10(M).

The values are drawn from article PMC2807882, “Conservation of DNA-binding specificity and oligomerisation properties within the p53 family”.
